Laboratory results reported in patent US20170152311A1 (published 2017).
Numbering of substitutions follows the chain as printed. Values belong to the binder of their own block, whether it stands above or below them.

Legend:
[1] = target: T1, recombinant human M-CSF (human, UniProt P09603 33-190, limits assumed); assay: SPR (Biacore), antibody captured on anti-mouse Fc chip, M-CSF flowed, 25 C, 1:1 model
T1 construct: The active form is described as a disulfide bonded dimer; also called M-SCF; CSF-1
T1 sequence: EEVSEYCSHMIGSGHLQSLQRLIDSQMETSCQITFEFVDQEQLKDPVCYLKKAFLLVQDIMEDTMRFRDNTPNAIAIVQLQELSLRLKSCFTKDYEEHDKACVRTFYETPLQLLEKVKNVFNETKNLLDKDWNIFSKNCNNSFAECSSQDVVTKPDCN
Method: Binding properties of the aforementioned antibodies were analyzed using Biacore analyses. […] The aforementioned antibodies were then captured on the anti-mouse Fc/CM5 biosensor chip at 1.5 μg/ml for 3 min at 2 μl/min. MCSF was flowed over the modified biosensor surface at varying concentrations (Rmax ˜15). Test antibodies and antigen were diluted in 0.01 M HEPES pH 7.4, 0.15 M NaCL, 3 mM EDTA, 0.005% Surfactant P20 (HBS-EP). All experiments were performed at 25° C. Kinetic and affinity constants were determined using Biaevaluation software (Biacore) with a 1:1 interaction model/global fit.

[2] = target: T1, recombinant human M-CSF; assay: cell-based or functional assay
[3] = target: T1, recombinant human M-CSF; assay: SPR (Biacore), M-CSF amine-coupled on CM5 chip, antibody flowed
Method: (§1) To determine the relative differences in the binding affinity of intact antibodies by Biacore analysis, M-CSF was immobilized onto CMS biosensor chip via amine coupling. 0.05 μg/ml M-CSF in 10 mM Na-Acetate pH 4.0 was injected at 1 μl/min for 5 minutes to achieve RL=6-12 RU. Test antibody or Fab fragments were flowed over the modified biosensor surface at varying concentrations ranging from 100 nM to 1.5 nM in 2-fold dilutions. Test antibodies were diluted in 0.01 M HEPES pH 7.4, 0.15 M NaCL, 3 mM EDTA, 0.005% Surfactant P20 (HBS-EP) and all experiments were done at 25° C. Each concentration point and buffer blanks were run in triplicate, and data was collected over 3 minutes of association and 8 minutes of dissociation. Kinetic and affinity constants were determined using Biaevaluation software with a 1:1 interaction model/global fit.

[4] = target: T1, recombinant human M-CSF; assay: SPR (Biacore), M-CSF amine-coupled on CM5 chip, antibody flowed, 25 C, 1:1 model, n = 5
Method: as §1

[5] = target: T1, recombinant human M-CSF; assay: SPR (Biacore), M-CSF amine-coupled on CM5 chip, antibody flowed 100 nM to 1.5 nM, 25 C, 1:1 model, n = 5
Method: as §1

[6] = target: T1, recombinant human M-CSF; assay: SPR (Biacore), M-CSF amine-coupled on CM5 chip, antibody flowed 100 nM to 1.5 nM, 25 C, 1:1 model
Method: as §1

[7] = target: T1, recombinant human M-CSF; assay: SPR (Biacore), M-CSF amine-coupled on CM5 chip, antibody flowed, 25 C, 1:1 model, n = 2
Method: as §1

[8] = target: T1, recombinant human M-CSF; assay: SPR (Biacore), M-CSF amine-coupled on CM5 chip, antibody flowed 100 nM to 1.5 nM, 25 C, 1:1 model, n = 2
Method: as §1

[9] = target: T1, recombinant human M-CSF; assay: SPR (Biacore), M-CSF amine-coupled on CM5 chip, antibody or Fab flowed, 25 C, 1:1 model
Method: Specifically, M-CSF was immobilized onto CM5 biosensor chip via amine coupling. 0.05 μg/ml M-CSF in 10mM Na Acetate pH 4.0 was injected at 1 μl/min for 5 minutes to achieve RL=6-12 RU. Test antibody (or Fab fragment) were flowed over the modified biosensor surface at varying concentrations. Test antibodies were diluted in 0.01 M HEPES pH 7.4, 0.15 M NaCL, 3 mM EDTA, 0.005% Surfactant P20 (HBS-EP) and all experiments were done at 25° C. Kinetic and affinity constants were determined using Biaevaluation software (Biacore) with a 1:1 interaction model/global fit.

[10] = target: T1, recombinant human M-CSF; assay: SPR (Biacore), M-CSF amine-coupled on CM5 chip, antibody flowed, 25 C, 1:1 model
Method: as §1

[11] = target: T1, recombinant human M-CSF; assay: cell-based or functional assay; remark: listed apart in the source
[12] = target: T1, recombinant human M-CSF; assay: SPR (Biacore), M-CSF amine-coupled on CM5 chip, antibody flowed, 25 C, 1:1 model, n = 21
Method: as §1

[13] = target: T1, recombinant human M-CSF; assay: SPR (Biacore), M-CSF amine-coupled on CM5 chip, antibody flowed 100 nM to 1.5 nM, 25 C, 1:1 model, n = 21
Method: as §1

Kd [1]: 0.27 nM | koff [1]: 0.000193 s⁻¹ | kon [1]: 704000 M⁻¹ s⁻¹
B1: murine monoclonal antibody MC3 (antibody, V domains shown)
VH: DVQLQESGPGLVKPSQSLSLTCTVTGYSITSDYAWNWIRQFPGNKLEWMGYISYSGSTSYNPSLKSRISITRDTSKNQFFLQLNSVTTEDTATYYCARLETWLFDYWGQGTTLTVSS
VL: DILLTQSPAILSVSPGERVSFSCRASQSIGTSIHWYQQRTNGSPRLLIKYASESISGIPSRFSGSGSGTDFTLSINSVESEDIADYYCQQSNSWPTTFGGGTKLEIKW
notes: Hybridoma ATCC PTA-6264

Kd [6]: 0.95 nM | koff [6]: 0.000238 s⁻¹ | kon [6]: 250000 M⁻¹ s⁻¹
B3: heRX1-1.G1 (antibody)
heavy: not shown
light: EIVLTQSPGTLSVSPGERVTFSCRASQSIGTSIHWYQQKTGQSPRLLIKYASERISGIPDRFSGSGSGTDFTLTISRVESEDFADYYCQQINSWPTTFGQGTKLEIKRT
notes: heavy pMXC29 Low Risk (Kabat), Gamma 1; also called heRX1-1-IgG1; heRX1-1.IgG1; not shown: human Kappa light chain constant region (the printed V regions end in EIKRT, which may overlap its start)

Kd [9]: 10.8 nM | koff [9]: 0.00303 s⁻¹ | kon [9]: 281000 M⁻¹ s⁻¹
B6: rRX1 Fab (mouse) (Fab, V domains shown)
VH: DVQLQESGPGLVKPSQSLSLTCTVTDYSITSDYAWNWIRQFPGNKLEWMGYISYSGSTSYNPSLKSRISITRDTSKNQFFLQLNSVTTEDTATYYCASFDYAHAMDYWGQGTSVTVSS
VL: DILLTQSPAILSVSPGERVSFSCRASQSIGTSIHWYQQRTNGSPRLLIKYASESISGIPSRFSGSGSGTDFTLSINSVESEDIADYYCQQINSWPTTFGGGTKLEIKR
notes: Fab fragment; also called Fab fragment of RX1

EC50 (M-CSF neutralization) [11]: 2 ng/mL | Kd [1]: 0.16 nM | koff [1]: 0.00027 s⁻¹ | kon [1]: 1.64e+06 M⁻¹ s⁻¹ | Kd [9]: 1 nM | koff [9]: 0.000235 s⁻¹ | kon [9]: 234000 M⁻¹ s⁻¹ | Kd [12]: 0.7 nM | koff [12]: 0.000156 s⁻¹ | kon [12]: 223000 M⁻¹ s⁻¹ | Kd [13]: 0.7 nM | koff [13]: 0.000156 s⁻¹ | kon [13]: 223000 M⁻¹ s⁻¹
B8: murine monoclonal antibody RX1 (antibody, V domains shown)
VH: B6 VH
VL: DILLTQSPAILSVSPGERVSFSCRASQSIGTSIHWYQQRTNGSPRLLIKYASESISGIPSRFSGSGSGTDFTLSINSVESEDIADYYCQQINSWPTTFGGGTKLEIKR
notes: Intact murine antibody; The hybridoma or commercial RX1 and the recombinant murine RX1 (rRX1, rmRX1) are treated as one molecule; also called Murine RX1; rRX1(mouse)

IC50 Fold Loss [2]: 3.6 fold | fold decrease in binding affinity compared to the parent murine antibody [3]: ≥ 7 fold | Kd [10]: 7.2 nM | koff [10]: 0.00144 s⁻¹ | kon [10]: 200000 M⁻¹ s⁻¹
B10: heRX1-9.G2 (antibody, V domains shown)
VH: B6 VH with S17T, N44K, S69T, T71S, F80S, T88A, E89A, S113T
VL: DIVLTQSPAFLSVTPGEKVTFTCQASQSIGTSIHWYQQKTDQAPKLLIKYASESISGIPSRFSGSGSGTDFTLTISSVEAEDAADYYCQQINSWPTTFGGGTKLEIKR
notes: not shown: human Gamma-2 heavy chain constant region; human Kappa light chain constant region (the V region entry may overlap its start)

IC50 Fold Loss [2]: 5.3 fold | fold decrease in binding affinity compared to the parent murine antibody [3]: ≥ 7 fold | Kd [10]: 5.9 nM | koff [10]: 0.00118 s⁻¹ | kon [10]: 201000 M⁻¹ s⁻¹
B11: heRX1-3.G2 (antibody, V domains shown)
VH: B6 VH with S17T, N44K, S69T, T71S, F80S, T88A, E89A, S113T
VL: EIVLTQSPGTLSVSPGERVTFSCRASQSIGTSIHWYQQKTGQAPRLLIKYASERATGIPDRFSGSGSGTDFTLTISRVESEDFADYYCQQINSWPTTFGQGTKLEIKR
notes: not shown: human Gamma-2 heavy chain constant region; human Kappa light chain constant region (the printed V regions end in EIKRT, which may overlap its start)

IC50 Fold Loss [2]: 6.5 fold | fold decrease in binding affinity compared to the parent murine antibody [3]: ≥ 7 fold | Kd [10]: 7.4 nM | koff [10]: 0.00129 s⁻¹ | kon [10]: 175000 M⁻¹ s⁻¹
B12: heRX1-5.G2 (antibody, V domains shown)
VH: B6 VH with S17T, N44K, S69T, T71S, F80S, T88A, E89A, S113T
VL: B11 VL with A43S, R54S, A55I, T56S
notes: as for B11

Second part, the binder before the results:

B2: heRX1-1.G2 (antibody)
heavy: B6 VH with S17T, N44K, S69T, T71S, F80S, T88A, E89A, S113T
light: B3 light
notes: The legends may have 45 and 48 exchanged; also called heRX1-1-IgG2; heRX1-1.IgG2; not shown: human Gamma-2 heavy chain constant region; human Kappa light chain constant region (the printed V regions end in EIKRT, which may overlap its start)
IC50 Fold Loss [2]: 2.8 fold | fold decrease in binding affinity compared to the parent murine antibody [3]: ≥ 7 fold | Kd [4]: 5.9 nM | koff [4]: 0.00137 s⁻¹ | kon [4]: 236000 M⁻¹ s⁻¹ | Kd [5]: 5.9 nM | koff [5]: 0.00137 s⁻¹ | kon [5]: 236000 M⁻¹ s⁻¹

B4: heRX1-1.G4 (antibody)
heavy: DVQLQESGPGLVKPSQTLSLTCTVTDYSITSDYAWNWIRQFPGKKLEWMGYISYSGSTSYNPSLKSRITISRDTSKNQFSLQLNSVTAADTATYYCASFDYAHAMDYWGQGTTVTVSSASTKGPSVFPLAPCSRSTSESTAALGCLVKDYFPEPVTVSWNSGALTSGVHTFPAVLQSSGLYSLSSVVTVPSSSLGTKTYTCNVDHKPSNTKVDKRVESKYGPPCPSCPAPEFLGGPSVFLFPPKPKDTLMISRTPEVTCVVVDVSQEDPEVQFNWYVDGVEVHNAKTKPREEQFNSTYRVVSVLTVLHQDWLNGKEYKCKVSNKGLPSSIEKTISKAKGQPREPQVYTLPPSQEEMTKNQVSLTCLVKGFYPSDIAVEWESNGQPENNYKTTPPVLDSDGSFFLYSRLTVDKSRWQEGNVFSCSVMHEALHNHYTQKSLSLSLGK
light: B3 light
notes: also called heRX1-1-IgG4; heRX1-1.IgG4; not shown: human Kappa light chain constant region (the printed V regions end in EIKRT, which may overlap its start)
Kd [6]: 1.42 nM | koff [6]: 0.000293 s⁻¹ | kon [6]: 207000 M⁻¹ s⁻¹

B5: heRX1-10.G2 (antibody, V domains shown)
VH: QVQLQESGPGLVKPSQTLSLTCTVSDYSITSDYAWNWIRQFPGKGLEWMGYISYSGSTSYNPSLKSRITISRDTSKNQFSLQLNSVTAADTAVYYCASFDYAHAMDYWGQGTTVTVSS
VL: B10 VL
notes: as for B10
IC50 Fold Loss [2]: 2.2 fold | fold decrease in binding affinity compared to the parent murine antibody [3]: ≥ 7 fold | Kd [7]: 6.3 nM | koff [7]: 0.0011 s⁻¹ | kon [7]: 173000 M⁻¹ s⁻¹ | Kd [8]: 6.3 nM | koff [8]: 0.0011 s⁻¹ | kon [8]: 173000 M⁻¹ s⁻¹

B7: heRX1-7.G2 (antibody, V domains shown)
VH: B5 VH with Q1D, S25T, G45K, V93T
VL: EIVLTQSPGTLSVSPGERVTFSCRASQSIGTSIHWYQQKTGQAPRLLIKYASESISGIPDRFSGSGSGTDFTLTISRVESEDFADYYCQQINSWPTTFGQGTKLEIK
notes: copies: 2 + 2
IC50 Fold Loss [2]: 6.1 fold | fold decrease in binding affinity compared to the parent murine antibody [3]: ≥ 7 fold | Kd [10]: 9.5 nM | koff [10]: 0.00149 s⁻¹ | kon [10]: 157000 M⁻¹ s⁻¹

B9: heRX1-2.G2 (antibody, V domains shown)
VH: B5 VH
VL: B11 VL with A43S, A55I, T56S
notes: as for B11
IC50 Fold Loss [2]: 3.1 fold | fold decrease in binding affinity compared to the parent murine antibody [3]: ≥ 7 fold | Kd [10]: 7.6 nM | koff [10]: 0.00165 s⁻¹ | kon [10]: 218000 M⁻¹ s⁻¹

B13: heRX1-8.G2 (antibody, V domains shown)
VH: B5 VH
VL: B7 VL
notes: copies: 2 + 2
IC50 Fold Loss [2]: 5.9 fold | fold decrease in binding affinity compared to the parent murine antibody [3]: ≥ 7 fold | Kd [10]: 9.8 nM | koff [10]: 0.00148 s⁻¹ | kon [10]: 152000 M⁻¹ s⁻¹

B14: heRX1-4.G2 (antibody, V domains shown)
VH: B5 VH
VL: B11 VL
notes: as for B11
IC50 Fold Loss [2]: 4.6 fold | fold decrease in binding affinity compared to the parent murine antibody [3]: ≥ 7 fold | Kd [10]: 4.6 nM | koff [10]: 0.00108 s⁻¹ | kon [10]: 238000 M⁻¹ s⁻¹

B15: murine monoclonal antibody 5H4 (antibody, mouse IgG1, kappa, V domains shown)
VH: EIQLQQSGPELVKTGTSVKISCKASGYSFTGYFMHWVKQSHGKSLEWIGYISCYNGDTNYNQNFKGKATFTVDTSSSTAYMQFNSLTSEDSAVYYCAREGGNYPAYWGQGTLVTVSA
VL: DIVMTQSHKFMSTSVGDRVTITCKASQNVGTAVTWYQQKPGQSPKLLIYWTSTRHAGVPDRFTGSGSGTDFTLTISDVQSEDLADYFCQQYSSYPLTFGAGTKLELKR
Kd [1]: 3 nM | koff [1]: 0.00177 s⁻¹ | kon [1]: 594000 M⁻¹ s⁻¹ | Kd [9]: 9.9 nM | koff [9]: 0.00126 s⁻¹ | kon [9]: 127000 M⁻¹ s⁻¹
